Sequences and labels used below:
B1: Charged multivesicular body protein 4a (Homo sapiens), Q9BY43 (parent)
chain: MSGLGRLFGKGKKEKGPTPEEAIQKLKETEKILIKKQEFLEQKIQQELQTAKKYGTKNKRAALQALRRKKRFEQQLAQTDGTLSTLEFQREAIENATTNAEVLRTMELAAQSMKKAYQDMDIDKVDELMTDITEQQEVAQQISDAISRPMGFGDDVDEDELLEELEELEQEELAQELLNVGDKEEEPSVKLPSVPSTHLPAGPAPKVDEDEEALKQLAEWVS

In this assay the parent is B1. The settings on record: with pdc6i_human PDCD6IP.
Take MSGLGRLFGKGKKEKGPTPEEAIQKLKETEKILIKKQEFLEQKIQQELQTAKKYGTKNKRAALQALRRKKRFEQQLAQTDGTLSTLEFQREAIENATTNAEVLRTMELAAQSMKKAYQDMDIDKVDELMTDITEQQEVAQQISDAISRPMGFGDDVDEDELLEELEELEQEELAQELLNVGDKEEEPSVKLPSVPSTHLPAGPAPKVDEDEEALKQAAEWVS [L217A]: the “effect of a mutation on the interaction” value is on record as “disrupting interaction”.
For the variant MSGLGRLFGKGKKEKGPTPEEAIQKLKETEKILIKKQEFLEQKIQQELQTAKKYGTKNKRAALQALRRKKRFEQQLAQTDGTLSTLEFQREAIENATTNAEVLRTMELAAQSMKKAYQDMDIDKVDELMTDITEQQEVAQQISDAISRPMGFGDDVDEDELLEELEELEQEELAQELLNVGDKEEEPSVKLPSVPSTHLPAGPAPKVDEDEEALKQLAEAVS [W220A], the “effect of a mutation on the interaction” value is recorded as “disrupting interaction”.
The result for MSGLGRLFGKGKKEKGPTPEEAIQKLKETEKILIKKQEFLEQKIQQELQTAKKYGTKNKRAALQALRRKKRFEQQLAQTDGTLSTLEFQREAIENATTNAEVLRTMELAAQSMKKAYQDMDIDKVDELMTDITEQQEVAQQISDAISRPMGFGDDVDEDELLEELEELEQEELAQELLNVGDKEEEPSVKLPSVPSTHLPAGPAPKVDEDEEAAKQLAEWVS [L214A] reads “disrupting interaction”.
